Target: the molecule itself
Assay: cross-linking; cells without TNFα stimulation, 1 mM BS3 for 30 min at room temperature on whole cells; RIPA lysate, nonreducing SDS-PAGE, anti-Flag blot

B1: TNF receptor 2 (TNFR2) with a 3x FLAG tag, overexpressed in K562/ADR cells (bisected N-glycans lacking) (receptor, human, UniProt P20333 23-461, looked up)
chain: LPAQVAFTPYAPEPGSTCRLREYYDQTAQMCCSKCSPGQHAKVFCTKTSDTVCDSCEDSTYTQLWNWVPECLSCGSRCSSDQVETQACTREQNRICTCRPGWYCALSKQEGCRLCAPLRKCRPGFGVARPGTETSDVVCKPCAPGTFSNTTSSTDICRPHQICNVVAIPGNASMDAVCTSTSPTRSMAPGAVHLPQPVSTRSQHTQPTPEPSTAPSTSFLLPMGPSPPAEGSTGDFALPVGLIVGVTALGLLIIGVVNCVIMTQVKKKPLCLQREAKVPHLPADKARGTQGPEQQHLLITAPSSSSSSLESSASALDRRAPTRNQPQAPGVEASGAGEARASTGSSDSSPGGHGTQVNVTCIVNVCSSSDHSSQCSSQASSTMGDTDSSPSESPKDEQVPFSKEECAFRSQLETPETLLGSTEEKPLPLGVPDAGMKPS
modifications: N-glycosylated; modification by bisected N-glycans on TNFR2 significantly suppressed in K562/ADR cells
notes: TNF receptor 2 (TNFR2), human, cDNA cloned from K562 cells; Same construct as m1; host K562/ADR cells have very low GnT-III; also called TNFR2-Flag; source: K562/ADR cells infected by virus with the CSIV-TRE-RfA-CMV-KT-TNFR2 plasmid, on the cell surface; not shown: 3x FLAG, C-terminal, kept
  stoichiometry N: 3

— paper PMC10033316, “Expression of GnT-III decreases chemoresistance via negatively regulating P-glycoprotein expression: Involvement of the TNFR2-NF-κB signaling pathway” (The Journal of Biological Chemistry, 2023)
